Data taken from publication PMC7055300 (2020).

Target: T1, human Retinoblastoma-1 (RB) pocket domain (human, UniProt P06400 373-771)
T1 chain: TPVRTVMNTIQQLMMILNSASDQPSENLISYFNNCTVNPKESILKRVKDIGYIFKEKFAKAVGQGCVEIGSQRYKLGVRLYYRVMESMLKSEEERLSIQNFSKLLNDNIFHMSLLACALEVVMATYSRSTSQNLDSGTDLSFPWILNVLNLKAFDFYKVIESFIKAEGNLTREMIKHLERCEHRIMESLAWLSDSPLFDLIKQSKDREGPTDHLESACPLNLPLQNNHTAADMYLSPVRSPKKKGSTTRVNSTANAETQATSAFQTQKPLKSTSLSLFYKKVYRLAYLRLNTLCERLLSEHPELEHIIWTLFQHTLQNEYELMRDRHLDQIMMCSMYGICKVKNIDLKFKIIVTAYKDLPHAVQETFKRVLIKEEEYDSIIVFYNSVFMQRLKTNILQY
Assay: SPR

B1: full-length E2F1, purified, recombinant (natural protein)
chain: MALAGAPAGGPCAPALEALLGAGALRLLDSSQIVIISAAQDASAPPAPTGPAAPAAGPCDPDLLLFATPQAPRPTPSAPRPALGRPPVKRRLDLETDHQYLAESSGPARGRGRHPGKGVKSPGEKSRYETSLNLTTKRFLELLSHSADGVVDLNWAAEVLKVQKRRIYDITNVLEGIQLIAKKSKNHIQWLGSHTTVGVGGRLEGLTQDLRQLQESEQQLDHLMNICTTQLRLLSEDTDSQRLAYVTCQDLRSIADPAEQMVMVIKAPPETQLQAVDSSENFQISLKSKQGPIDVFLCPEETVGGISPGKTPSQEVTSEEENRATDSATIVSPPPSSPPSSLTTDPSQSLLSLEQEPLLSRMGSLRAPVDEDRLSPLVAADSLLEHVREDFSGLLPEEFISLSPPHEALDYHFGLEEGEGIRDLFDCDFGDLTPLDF
- Kd: 0.0331 µM

Binder: YIEEVFTPLVLKCKELK [LXCXE peptide derived from TpGcpE (TpMuguga_02g00667)]
- Kd: 22.4 µM
